Key:
[1] = partition of amphotericin in dextran/PEG biphasic system; format: physicochemical; conditions: 5% dextran T-500, 5% PEG-6000, pH 6.8, absorbance at 330 nm
[2] = test system: granulocyte-macrophage colony; test: granulocyte-macrophage colony assay (CFUgm) of GM-CSF growth stimulating activity; format: cell-based; conditions: versus comparable amounts of unmodified GM-CSF, 0.1 to 8 ng/ml, Fig.3a
From the text: (§1) A better approach is to perform a correlation analysis, plotting the response obtained with equivalent amounts of the modified and unmodified materials on an XY plot. Identical activity gives datum points randomly distributed about the line representing equal activity (the dashed lines). […] In contrast, the presence of inhibitory material, with or without loss of intrinsic activity, produces a departure, usually without convergence to the upper extremity.
(§2) Datum points are means of colony counts in triplicate dishes for three independent experiments (Fig. 3a) or of two independent thymidine uptake experiments (Fig 3b).

[3] = 3H-thymidine uptake assay of GM-CSF growth stimulating activity; format: cell-based; conditions: versus comparable amounts of unmodified GM-CSF, 0.0006 to 1.0ng/ml, Fig.3b
From the text: as §1, §2

[4] = degradation of 125I-GM-CSF on storage at 4°C, FPLC profiles; format: physicochemical; conditions: for relative amount of 125I, Peak 1: high molecular weight; for relative amount of 125I, Peak 2: intermediate fragments; for relative amount of 125I, Peak 3: low molecular weight
From the text: This process is slowed by PEG modification. […] When supplied, ^125I-GM-CSF has little or no low molecular weight labelled species. […] There has been generation of intermediate and low molecular weight fragments in both samples. The former are commensurate in size with proteolytic cleavage products and the latter either with free iodine or very small fragments (i.e. < circa 1kDa). Pegylation reduces the loss of high molecular weight species.

[5] = blood clearance after subcutaneous injection with [125I]GM-CSF tracer; format: in vivo, BALB/c, male, 6-8 week-old mice; conditions: late clearing component; for fold increase of t1/2 over the control figure: figures in parentheses; for t1/2: subcutaneous, […] body weight, mice
Procedure: BALB/c, male, 6-8 week-old mice, weighing approximately 20g, were pooled into groups of three per condition, with adlib access to food and water. The reaction products were evaluated by FPLC and the proportions of individual species were estimated by fitting summated Gaussian curves to the FPLC profiles and estimating the area under the curve corresponding to each individual peak and expressing this as a % of the total area for the whole FPLC profile (Table 4b). The inventors have previously established that the individual peaks seen at low TMPEG concentrations (peaks 0, 1, 2 and 3) correspond to GM-CSF, PEG1-GM-CSF, PEG2-GM-CSF, PEG3-GM-CSF, respectively. At high TMPEG concentrations the peaks are broader and less well resolved thus fitting of individual Gaussian curves over all regions of the FPLC profile may not be possible. Thus peak 3 and the peaks for more highly substituted GM-CSF (potentially PEG4-7-GM-CSF) have been pooled. The peak eluting with the void volume peak is well resolved from the PEG4-7-GM-CSF and presumably represents aggregates, the area of this peak was used to estimate the proportion of aggregated material (Table 4b).
The different PEGylated samples and unmodified GM-CSF (Hoechst), all containing <4% [^125I]GM-CSF (Amersham, 1222 Ci/mmol) to serve as a tracer, were adminstrated at a dose of 0.0524µg in 100µl (3.45 x 10^-12 mole; equivalent to 2.5µg/kg body weight) by subcutaneous injection. The amount of TMPEG concomitantly administered is also indicated in Table 4a (MPEG has been shown not to influence t1/2, but does influence egress from the subcutaneous site). Up to eight 25µl tail vein blood samples were collected from each mouse using capillary tubes at various time points ranging between 10 minutes and 80 hours, to give a minimum of three samples per time point. Samples from the capillary tubes were washed immediately into 1ml of PBS containing 50 I.U. of heparin. Radioactivity was determined using a gamma counter (LKB 1270 Rackgamma) results being shown in Fig. 6a (open circles for untreated material, other symbols as indicated on the figure). Clearances for the materials of reactions A and B were clearly biphasic, presumably reflecting the large proportion of unmodified material remaining in these preparations (Table 4b). Half-lives were calculated using linear regression (log concentration versus time) for the slower clearing component if biphasic elimination was present (solid lines Figure 6a; dotted lines give the 95% confidence intervals).

[6] = tissue distribution, organ:blood concentration ratios; format: in vivo, mice; conditions: organ:blood concentration ratios versus GM-CSF, Fig.6b
Procedure: In order to establish the contributions to extended t1/2 we examined the tissue distribution of material prepared in an identical manner to reaction C, using an identical dose. At each of the times indicated, one aminal was sacrificed and organs/tissue including kidney, spleen, liver, lung, heart and femur were recovered and radioactivity was measured as above. […] The dotted and dashed lines indicate the blood levels of GM-CSF and PEG-GM-CSF respectively. The filled circles and open circles are the organ concentrations of PEG-GM-CSF and GM-CSF respectively. […] This is somewhat surprising since circa 24% of the reaction C mixture represents PEG1-GM-CSF (i.e. material below the renal threshold). […] Thus the degree of substitution desirable for individual targets will have to be assessed on a case-by-case basis. Table 4(A)

For C[C@@H]1[C@H](O)[C@@H](C)/C=C/C=C/C=C/C=C/C=C/C=C/C=C/[C@H](O[C@@H]2O[C@H](C)[C@@H](O)[C@H](N)[C@@H]2O)C[C@@H]2O[C@](O)(C[C@@H](O)C[C@@H](O)[C@H](O)CC[C@@H](O)C[C@@H](O)CC(=O)O[C@H]1C)C[C@H](O)[C@H]2C(=O)O [control, amphotericin], the “% material in the top (PEG-rich) phase” value [1] was 4.9 ± 0.2%.

For “Comparative Example 1: gm-CSF PEGylated with TMPEG made by a previously described method (WO90/04606, Example 1) [reference compound]”, the “growth stimulating activity as assessed by granulocyte-macrophage colony assay” value [2] was “additional inhibitory activity” and the “growth stimulating activity as assessed by thymidine uptake” value [3] was “loss of activity without significant inhibitory material”.

With “PEG-CM-CSF: 125I-GM-CSF exposed to TMPEG at a molar ratio of 305:1” the “relative amount of 125I, Peak 1” value ([4]; After 1 Month Storage at 4°C) was 45.8, the “relative amount of 125I, Peak 2” value ([4]; After 1 Month Storage at 4°C) was 8.9 and the “relative amount of 125I, Peak 3” value ([4]; After 1 Month Storage at 4°C) was 36.3. For the same compound, the “relative amount of 125I, Peak 1” value ([4]; Before Storage) was 81.1, the “relative amount of 125I, Peak 2” value ([4]; Before Storage) was 0 and the “relative amount of 125I, Peak 3” value ([4]; Before Storage) was 12.4.

In the case of “Reaction A: PEG-modified GM-CSF preparation, GM-CSF 0.524 µg/ml reacted with TMPEG 6.46 mg/ml”, the “fold increase of t1/2 over the control figure” value (from here on “fold increase”) [5] is reported as 7.2 fold and the t1/2 [5] is reported as 11.7 h.

For “Reaction B: PEG-modified GM-CSF preparation, GM-CSF 0.524 µg/ml reacted with TMPEG 19.75 mg/ml”, the “fold increase” value [5] was 11.1 fold and the t1/2 [5] was 18.1 h.

With “Reaction C: PEG-modified GM-CSF preparation, GM-CSF 0.524 µg/ml reacted with TMPEG 197.5 mg/ml” the “fold increase” value [5] was 10.3 fold, the t1/2 [5] was 16.8 h and the renal accumulation [6] was “substantially reduced”.

With “Reaction D: PEG-modified GM-CSF preparation, GM-CSF 0.524 µg/ml reacted with TMPEG 459.7 mg/ml; contains >50% of aggregates” the “fold increase” value [5] was 15.3 fold and the t1/2 [5] was 25.1 h.

For “gm-CSF PEGylated using the process of Example 1: gm-CSF coupled with TMPEG made by the process of the invention”, the “growth stimulating activity as assessed by granulocyte-macrophage colony assay” value [2] was “no significant loss” and the “growth stimulating activity as assessed by thymidine uptake” value [3] was “no significant loss”.

Source: EP0714402B9, “POLYMER MODIFICATION” (PolyMASC Pharmaceuticals plc, priority 1993, dated 1995)
